Reference: paper PMC5350519

How the values were obtained:
[1] = target: CENP-A^TAP (carboxy-terminally TAP-tagged CENP-A) (human) (UniProt P49450); experiment: co-IP
[2] = target: CENP-A^LAP (CENP-A tagged at an endogenous allele with a LAP tag) (human (endogenous in HeLa)) (UniProt P49450); experiment: co-IP

fold depletion of histone H3 in the purified complexes against the input [1] [fold] | percent of the total CENP-A in the affinity-purified complexes [1] [%] | stoichiometry N (CENP-A molecules in a complex) [1] | stoichiometry N (CENP-A molecules in a complex) [2] | Substance
6250 |  |  |  | histone H3 (from UniProt P68431 1-136) (natural protein)
 | 9 to 13 | > 2 | 2 | untagged endogenous CENP-A (from UniProt P49450 1-140) (natural protein)
